Measured values from the supplement of paper PMC10567573.

B1: TRAF3IP2 (parent)
chain: APWNYHYHCPGSPDHQVPYGHDYP
B2: NETO1 (parent)
chain: GFSPIIGRFCGQQNPPVIKSSGRF

Variants of: B1
Assay: protein stability index of a GFP-peptide fusion (GPS, HEK-293T) (PSI 1-6); higher = more stable
Settings: c terminus: a fixed tail appended
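Further: lentivirally expressed fusions sorted by FACS into six bins by GFP to DsRed ratio, PSI derived from sequencing read proportions per bin multiplied by bin number.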

Protein stability index, by site and new letter:
G11: N 1.87, P 1.91, Q 1.63, R 2.04, S 2.12, T 2.18, V 2.08, W 2.18, Y 1.37
S12: A 2.07, C 2.75, D 2.49, E 2.37, F 1.7, G 2.36, H 2.23, I 2.27, K 2.21, L 2.47, M 1.96, N 1.6, Q 2.5, R 2.47, T 2.35, V 2.2, W 2, Y 2.21
P13: A 3.02, C 1.94, D 2.4, E 3.05, F 2.78, G 2.05, H 1.79, I 1.87, K 1.84, L 2.16, M 2.12, N 1.83, Q 2.5, R 2.33, S 2.14, T 2.24, W 1.67, Y 1.63
D14: A 1.93, C 2.49, E 2.72, F 2.75, G 2.1, H 2.25, I 2.08, K 2, L 2.6, M 1.84, N 2.11, Q 2.46, R 1.91, S 2.26, T 1.78, V 2.09, W 2.32, Y 1.53
H15: A 2.1, C 1.97, D 2.56, E 2.43, F 1.65, G 2.73, I 2.61, K 2.65, L 1.95, M 2.02, N 2.48, P 2.23, Q 2.13, R 2.1, S 2.22, T 1.91, V 2.31, W 1.46, Y 2.14
Q16: A 2.64, C 2.07, D 2.49, E 2.6, F 2.19, G 1.81, H 2.97, I 2.58, K 2.15, L 1.89, M 1.94, N 2.54, P 2, R 2.02, S 3.2, T 2.31, V 2.09, W 1.68, Y 2.09
V17: A 2.06, C 2.45, D 2.62, E 2.95, F 1.73, G 2.68, H 2.71, I 2.15, K 2.53, L 2.81, M 1.88, N 2.23, P 2.6, Q 2.61, R 2.4, S 2.31, T 2.39, W 2.08, Y 1.81
P18: A 3.19, C 2.97, D 2.44, E 2.54, F 2.23, G 1.92, H 2.17, I 1.93, K 3.59, L 2.21, M 2.56, N 2.5, Q 2.54, R 2, S 1.67, T 2.37, V 2.05, W 1.71, Y 2.16
Y19: A 2.47, C 1.91, D 2.75, E 2.8, F 1.87, G 2.41, H 2.85, I 2.66, K 2.51, L 2.46, M 2.23, N 2.48, P 2.51, Q 3.09, R 1.99, S 2.44, T 2.85, V 2.7, W 1.82
G20: A 2.58, C 2.42, D 2.95, E 2.48, F 1.52, H 2.35, I 2.74, K 2.65, L 1.74, M 1.93, N 2.44, P 2.26, Q 2.19, R 2.45, S 2.28, T 2.66, V 2.13, W 1.4, Y 2.15
H21: A 2.22, C 1.6, D 2.79, E 2.55, F 1.56, G 1.91, I 1.74, K 2.48, L 1.52, M 1.67, N 2.39, P 2.48, Q 2.17, R 2.4, S 2.05, T 2.03, V 1.54, W 2.69, Y 2.35
D22: A 1.72, C 1.41, E 2.36, F 1.55, G 2.41, I 1.16, K 2.73, L 1.9, M 1.95, N 1.36, P 2.68, Q 2.16, R 2.18, S 2.33, T 2.42, V 1.6, W 2.16, Y 2.08
Y23: A 2.85, C 1.91, D 3.83, E 3.61, F 2, G 2.92, H 1.88, I 2.3, K 3.12, L 2.27, M 2.25, N 2.08, P 3.06, Q 2.92, R 2.9, S 2.85, T 2.89, V 1.97, W 1.68
P24: A 2.51, C 2.02, D 3.88, E 4.07, F 2.01, G 1.62, H 3.02, I 1.72, K 2.8, L 1.96, M 1.66, N 2.93, Q 2.28, R 2.73, S 2.21, T 2.63, V 1.96, W 1.94, Y 1.86

Variants of: B2
Assay: as above
Settings: c terminus: a fixed tail appended

Protein stability index, by site and new letter:
G1: A 2.17, C 1.6, D 1.6, E 1.7, F 1.86, H 1.66, I 2, K 2.18, L 2.27, M 1.98, N 1.85, P 2.25, Q 2.03, R 1.98, S 2.04, T 1.8, V 1.93, W 2.02, Y 1.93
F2: A 2.35, C 2.73, D 2.68, E 3.09, G 2.54, H 2.15, I 2.25, K 2.28, L 2.55, M 2, N 2.78, P 2.5, Q 2.91, R 2.16, S 2.75, T 2.46, V 2.13, W 1.52, Y 2.02
S3: A 2.6, C 1.22, D 2.41, E 2.78, F 2.56, G 2.2, H 2.03, I 1.71, K 2.47, L 1.68, M 1.84, N 2.08, P 1.75, Q 2.49, R 2.04, T 2.4, V 2.03, W 1.75, Y 1.53
P4: A 2.12, C 1.88, D 1.57, E 2.33, F 2.09, G 1.74, H 2.05, K 2.59, M 2.36, N 1.69, Q 1.91, R 1.82, S 1.99, T 1.26, V 1.87, W 1.91, Y 2.44
I5: A 2.05, C 2.12, D 2.92, E 3.22, F 1.79, G 2.31, H 2.59, K 2.75
